One molecule from PMC11398535 (bioRxiv, 2024) can be followed below.

The assay addresses T1, peptide-8 (DEIVNKVL), derived from the ESCRT-III family member Vps2p.
T1 peptide: {5(6)‑carboxyfluorescein}-DEIVNKVL-NH2
The experiment in a line: fluorescence polarisation. On the technique in general: Fluorescence polarisation rises when a labelled molecule tumbles more slowly, as on binding a larger partner.

B1: Vps4p^L7C/A43C (MIT domain stabilised by a disulfide bond) (enzyme, S. cerevisiae, UniProt P52917 1-437, looked up)
chain: MSTGDFCTKGIELVQKAIDLDTATQYEEAYTAYYNGLDYLMLCLKYEKNPKSKDLIRAKFTEYLNRAEQLKKHLESEEANAAKKSPSAGSGSNGGNKKISQEEGEDNGGEDNKKLRGALSSAILSEKPNVKWEDVAGLEGAKEALKEAVILPVKFPHLFKGNRKPTSGILLYGPPGTGKSYLAKAVATEANSTFFSVSSSDLVSKWMGESEKLVKQLFAMARENKPSIIFIDEVDALTGTRGEGESEASRRIKTELLVQMNGVGNDSQGVLVLGATNIPWQLDSAIRRRFERRIYIPLPDLAARTTMFEINVGDTPCVLTKEDYRTLGAMTEGYSGSDIAVVVKDALMQPIRKIQSATHFKDVSTEDDETRKLTPCSPGDDGAIEMSWTDIEADELKEPDLTIKDFLKAIKSTRPTVNEDDLLKQEQFTRDFGQEGN
modifications: disulfide bond between C7 and C43 of the MIT domain
Turning to B1, the “fold tighter than Vps4p” value came to 8 fold.
